# Laboratory results as given in patent US20260209386A1 (MYTHIC THERAPEUTICS, published 2026).
# Changes are numbered by the printed parent chain.
# B1: MYT11207 (antibody, V domains shown)
# VH: EVQLVESGGGLVQPGGSLRLSCTASGIDLSSYVMGWVRQAPGKGLEWVGYIYGGGGTYYATWARGRFTISRDTSKNTVYLQMNSLRAEDTAVYFCAHAAADFYFNLWGQGTLVTVSS
# VL: EIVMTQSPSTLSASVGDRVIITCQASQSISSYLAWYQQKPGKAPKLLIYDISDLASGVPSRFSGSGSGAEFTLTISSLQPDDFATYYCQSYYWISNSGAAFGQGTKLTVL
# notes: HC variant of MYT9460, sub at HCV pos 97 (H3 02)
# B2: MYT11208 (antibody, V domains shown)
# VH: B1 VH with H97R, A98H
# VL: B1 VL
# notes: HC variant of MYT9460, sub at HCV pos 98 (H3 03)
# B3: MYT11209 (antibody, V domains shown)
# VH: B1 VH with H97R, A99H
# VL: B1 VL
# notes: HC variant of MYT9460, sub at HCV pos 99 (H3 04)
# B4: MYT11214 (antibody, V domains shown)
# VH: B1 VH with H97R, F104H
# VL: B1 VL
# notes: HC variant of MYT9460, sub at HCV pos 104 (H3 09)
# B5: MYT11215 (antibody, V domains shown)
# VH: B1 VH with H97R, N105H
# VL: B1 VL
# B6: MYT11216 (antibody, V domains shown)
# VH: B1 VH with H97R, L106H
# VL: B1 VL
# B7: MYT11217 (antibody, V domains shown)
# VH: B1 VH with F94Y, H97R
# VL: B1 VL
# B8: MYT11218 (antibody, V domains shown)
# VH: B1 VH with D28A, H97R
# VL: B1 VL
# notes: HC variant of MYT9460, sub at HCV pos 28 (H1 03), second variant at this position, new residue not marked
# B9: MYT11219 (antibody, V domains shown)
# VH: B1 VH with H97R, D101A
# VL: B1 VL
# notes: HC variant of MYT9460, printed as H3 05 with HCV pos 101, new residue not marked
# B10: MYT11220 (antibody, V domains shown)
# VH: B1 VH with H97R
# VL: B1 VL with Q24H
# notes: LC variant of MYT9460, sub at LCV pos 24 (L1 01)
# B11: MYT11223 (antibody, V domains shown)
# VH: B1 VH with H97R
# VL: B1 VL with Q27H
# notes: LC variant of MYT9460, sub at LCV pos 27 (L1 04)
# B12: MYT11226 (antibody, V domains shown)
# VH: B1 VH with H97R
# VL: B1 VL with S30H
# notes: LC variant of MYT9460, sub at LCV pos 30 (L1 07)
# B13: MYT11227 (antibody, V domains shown)
# VH: B1 VH with H97R
# VL: B1 VL with S31H
# notes: LC variant of MYT9460, sub at LCV pos 31 (L1 08)
# B14: MYT11228 (antibody, V domains shown)
# VH: B1 VH with H97R
# VL: B1 VL with Y32H
# notes: LC variant of MYT9460, sub at LCV pos 32 (L1 09)
# B15: MYT11231 (antibody, V domains shown)
# VH: B1 VH with H97R
# VL: B1 VL with D50H
# notes: LC variant of MYT9460, sub at LCV pos 50 (L2 01)
# B16: MYT11233 (antibody, V domains shown)
# VH: B1 VH with H97R
# VL: B1 VL with S52H
# notes: LC variant of MYT9460, sub at LCV pos 52 (L2 03)
# B17: MYT11234 (antibody, V domains shown)
# VH: B1 VH with H97R
# VL: B1 VL with D53H
# notes: LC variant of MYT9460, sub at LCV pos 53 (L2 04)
# B18: MYT11235 (antibody, V domains shown)
# VH: B1 VH with H97R
# VL: B1 VL with L54H
# notes: LC variant of MYT9460, sub at LCV pos 54 (L2 05)
# B19: MYT11237 (antibody, V domains shown)
# VH: B1 VH with H97R
# VL: B1 VL with S56H
# notes: LC variant of MYT9460, sub at LCV pos 56 (L2 07)
# B20: MYT11239 (antibody, V domains shown)
# VH: B1 VH with H97R
# VL: B1 VL with S90H
# notes: LC variant of MYT9460, sub at LCV pos 90 (L3 02)
# B21: MYT11241 (antibody, V domains shown)
# VH: B1 VH with H97R
# VL: B1 VL with Y92H
# notes: LC variant of MYT9460, sub at LCV pos 92 (L3 04)
# B22: MYT11242 (antibody, V domains shown)
# VH: B1 VH with H97R
# VL: B1 VL with W93H
# notes: LC variant of MYT9460, sub at LCV pos 93 (L3 05)
# B23: MYT11251 (antibody, V domains shown)
# VH: B1 VH with H97R
# VL: B1 VL with D50A
# notes: LC variant of MYT9460, Ala sub at LCV pos 50 (L2 01)
# B24: MYT11252 (antibody, V domains shown)
# VH: B1 VH with H97R
# VL: B1 VL with D53A
# notes: LC variant of MYT9460, Ala sub at LCV pos 53 (L2 04)
# B25: MYT11341 (antibody, V domains shown)
# VH: EVQLVESGGGLVQPGGSLRLSCTASGIHLSNYAVIWVRQAPGKGLEWVGIIYTYDTTYYANWAKGRFTISRDTSKNTVYLQMNSLRAEDTAVYFCARSFSDISDLIKLWGQGTLVTVSS
# VL: EIVMTQSPSTLSASVGDRVIITCQASQSLYNNKDLAWYQQKPGKAPKLLIYEASKLASGVPSRFSGSGSGAEFTLTISSLQPDDFATYYCLGEFSCGSGDCLAFGQGTKLTVL
# notes: MYT9797 HC variant; captured via anti-human Fc
# B26: MYT11339 (antibody, V domains shown)
# VH: B25 VH with G26H, H28D
# VL: B25 VL
# notes: as for B25
# B27: MYT11340 (antibody, V domains shown)
# VH: B25 VH with I27H, H28D
# VL: B25 VL
# notes: as for B25
# B28: MYT11342 (antibody, V domains shown)
# VH: B25 VH with H28D, L29H
# VL: B25 VL
# notes: as for B25
# B29: MYT11343 (antibody, V domains shown)
# VH: B25 VH with H28D, S30H
# VL: B25 VL
# notes: as for B25
# B30: MYT11344 (antibody, V domains shown)
# VH: B25 VH with H28D, N31H
# VL: B25 VL
# notes: as for B25
# B31: MYT11345 (antibody, V domains shown)
# VH: B25 VH with H28D, Y32H
# VL: B25 VL
# notes: as for B25
# B32: MYT11347 (antibody, V domains shown)
# VH: B25 VH with H28D, V34H
# VL: B25 VL
# notes: as for B25
# B33: MYT11348 (antibody, V domains shown)
# VH: B25 VH with H28D, I35H
# VL: B25 VL
# notes: as for B25
# B34: MYT11350 (antibody, V domains shown)
# VH: B25 VH with H28D, I51H
# VL: B25 VL
# notes: as for B25
# B35: MYT11358 (antibody, V domains shown)
# VH: B25 VH with H28D, Y59H
# VL: B25 VL
# notes: as for B25
# B36: MYT11359 (antibody, V domains shown)
# VH: B25 VH with H28D, A60H
# VL: B25 VL
# notes: as for B25
# B37: MYT11360 (antibody, V domains shown)
# VH: B25 VH with H28D, N61H
# VL: B25 VL
# notes: as for B25
# B38: MYT11361 (antibody, V domains shown)
# VH: B25 VH with H28D, W62H
# VL: B25 VL
# notes: as for B25
# B39: MYT11362 (antibody, V domains shown)
# VH: B25 VH with H28D, A63H
# VL: B25 VL
# notes: as for B25
# Target: T1, Human PTK7 Protein, His Tag, Acro Biosystems (human, UniProt Q13308 31-704)
# T1 construct: Bought protein; also called CCK4; not shown: His tag
# T1 sequence: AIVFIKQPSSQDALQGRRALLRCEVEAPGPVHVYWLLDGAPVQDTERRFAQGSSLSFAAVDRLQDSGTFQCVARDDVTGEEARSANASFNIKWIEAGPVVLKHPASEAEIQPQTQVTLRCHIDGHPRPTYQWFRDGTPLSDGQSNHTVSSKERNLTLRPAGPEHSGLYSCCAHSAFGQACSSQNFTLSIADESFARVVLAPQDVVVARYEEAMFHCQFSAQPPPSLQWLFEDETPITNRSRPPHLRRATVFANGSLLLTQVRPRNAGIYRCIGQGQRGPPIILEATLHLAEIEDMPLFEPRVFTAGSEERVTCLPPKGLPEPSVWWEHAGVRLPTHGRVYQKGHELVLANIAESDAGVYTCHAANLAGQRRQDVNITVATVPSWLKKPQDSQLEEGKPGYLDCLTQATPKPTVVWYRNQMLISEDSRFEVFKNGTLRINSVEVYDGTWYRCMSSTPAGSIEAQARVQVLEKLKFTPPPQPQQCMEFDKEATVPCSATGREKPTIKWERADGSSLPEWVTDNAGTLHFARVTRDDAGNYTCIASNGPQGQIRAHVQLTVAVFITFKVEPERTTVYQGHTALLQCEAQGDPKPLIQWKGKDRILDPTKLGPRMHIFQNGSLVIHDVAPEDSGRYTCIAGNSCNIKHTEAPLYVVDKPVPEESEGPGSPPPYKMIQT
# Assay: BLI (Octet), antibody on anti-human Fc sensor, 50 nM PTK7, dissociation at pH 7.4 or 5.4; 2 = substantially similar binding relative to parent
row,Binder,binding result
1,B1,binds
2,B2,binds
3,B3,binds
4,B4,binds
5,B5,binds
6,B6,binds
7,B7,binds
8,B8,binds
9,B9,binds
10,B10,binds
11,B11,binds
12,B12,binds
13,B13,binds
14,B14,binds
15,B15,binds
16,B16,binds
17,B17,binds
18,B18,binds
19,B19,binds
20,B20,binds
21,B21,binds
22,B22,binds
23,B23,binds
24,B24,binds

# Target: T2, Human PTK7 Protein, His Tag (Acro Biosystems) (human, UniProt Q13308 31-704)
# T2 construct: Bought recombinant protein; also called CCK4; tyrosine-protein kinase-like 7; not shown: His tag
# T2 sequence: T1 sequence
# Assay: BLI, antibody on anti-human Fc sensor, 50 nM PTK7 at pH 7.4, dissociation at pH 7.4 or 5.4; 2 = substantially similar binding relative to parent
row,Binder,binding result
1,B25,binds
2,B26,binds
3,B27,binds
4,B28,binds
5,B29,binds
6,B30,binds
7,B31,binds
8,B32,binds
9,B33,binds
10,B34,binds
11,B35,binds
12,B36,binds
13,B37,binds
14,B38,binds
15,B39,binds
